Measurements: patent US20130273053A1 (UNIVERSITY OF LEICESTER, published 2013)

Molecular target: T1, human MASP-3 (human)
T1 construct: also called MASP-3 antigen
T1 chain: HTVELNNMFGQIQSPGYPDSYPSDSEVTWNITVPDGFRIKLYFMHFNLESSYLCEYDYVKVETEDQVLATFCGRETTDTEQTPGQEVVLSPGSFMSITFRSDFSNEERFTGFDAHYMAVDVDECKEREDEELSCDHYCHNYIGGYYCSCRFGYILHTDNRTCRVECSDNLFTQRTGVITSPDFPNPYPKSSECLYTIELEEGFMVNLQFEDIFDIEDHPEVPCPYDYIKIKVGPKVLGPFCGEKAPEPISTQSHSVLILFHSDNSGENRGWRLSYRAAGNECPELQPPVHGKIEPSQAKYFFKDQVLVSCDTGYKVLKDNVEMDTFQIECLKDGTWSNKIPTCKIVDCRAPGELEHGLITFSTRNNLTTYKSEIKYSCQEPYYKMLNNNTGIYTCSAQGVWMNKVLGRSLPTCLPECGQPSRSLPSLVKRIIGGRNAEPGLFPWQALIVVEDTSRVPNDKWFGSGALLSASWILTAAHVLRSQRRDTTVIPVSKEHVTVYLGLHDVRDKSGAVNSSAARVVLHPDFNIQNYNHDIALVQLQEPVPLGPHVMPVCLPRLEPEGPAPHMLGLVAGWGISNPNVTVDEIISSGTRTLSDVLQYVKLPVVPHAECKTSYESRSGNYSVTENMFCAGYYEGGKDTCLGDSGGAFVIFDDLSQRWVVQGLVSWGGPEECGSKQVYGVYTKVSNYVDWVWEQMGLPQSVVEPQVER
Assay: saturation binding, DTLacO cells stained with fluorescent-labeled soluble antigen
Description: Recombinant antibodies were generated by cloning PCR-amplified V regions into a vector that supported expression of human IgG1 in 293F cells (Yabuki et al., PLoS ONE, 7(4):e36032 (2012)).

Kd: ~31 nM
B1: MASP-3 specific clone M3J5 (antibody, IgM, V domains shown)
VH: AVTLDESGGGLQTPGGGLSLVCKASGFTFSSYAMGWMRQAPGKGLEYVAGIRSDGSFTLYATAVKGRATISRDNGQSTVRLQLNNLRAEDTATYFCTRSGNVGDIDAWGHGTEVIVSS
VL: ALTQPASVSANPGETVKITCSGGYSGYAGSYYYGWYQQKAPGSAPVTLIYYNNKRPSDIPSRFSGSLSGSTNTLTITGVRADDEAVYFCGSADNSGAAFGAGTTLTVL
notes: Chicken V regions; also called Clone 5; DTLacO clone M3J5
